From the NTF2 design screens of Basanta et al. (2020) come the findings set out here.

The nature of the series: protease stability score; higher = more stable; yeast display proteolysis, trypsin and chymotrypsin.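 Further: relative to predicted unfolded state with 0 unfolded-like and 1 meaning tenfold more protease.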
As to “SEDEKMAERVLRLLYEDILTGDEHALKRLLDPDARLSQGDKQHHGREVLLEWMRTVWERVDHMEFELKDFRFYGNYIIIHGTLTERINGRKLEFEVILYVYKINGKWFLHSIEIR”, the protease stability score was found to be 1.85.
The figure for “SEDEKMANEMLEIMMRNLITGNWEELSRLADPHVRIVINGVELHGRETINNYLHHLRIKRVHLNVTHIESIDGKVKSIGLLREHGEFNGKETETHTKVILIIQKVNGVWIVKEIRDE” is 1.4; for “SEDEKMFKEMKDLLLEILRTGDEDSWSHLADPDYRMDINGRIDHGMEEASRSLTEFLRKLGIDHLDIKDSKVTLVNGRAIIILHEETKVNGRKFNLRIINIVSKVNGKWSIESFSMSIE” it is 1.29; for “SEDEKMIEDASELHIDYFLTGDEESMEKLADPSVKLEQGDKDQHGREQHSKWYKELREELGIKHMRVDDVKFRLINGRLTLLIRGTLHVGDKSWDVHFILISEKIDGKWVIRNMIISYS” it is 1.32.
With “SEDEKMTEMALRLFMHTWRTGDEQVFRHLADPDYRLEVNGVEFIGWEQVTELFSRIVKRFDHMHIHLREFDDINGQADVRGTLILIQGDKEIRMETHIISKKFNGRWTHRRVHFH”, the protease stability score was determined as 0.428.
In the case of “SEDEKNHKIAMRILRRVIETGDERELEELADPDVRIVIGDKFHVGRDVWHEWAHRFDHTHHIEVKDHRHFDGRITLDTEVDVHIDGRRSRMRVIIIARKVDGVWFLHELRIH” it was 1.31; in that of “SEDEKNSRKFLEDWIRALETGDEHRLEELLDPHVLVIVDGVHYWGMEIFLKERRRHGFKLKDVRLEHMTIQGDKVILHVQIEVHINGRDHHLESYIIIEKVNGRWHVSKLELR”, 2.71; in that of “SEDEKNVDEFMERMTRLTETGDEDNLRHLMDPNVYLHQGDKVHHGREDVVKAIREIIDNLGVTQVKAEVHSFEVIGDKMDLRGTLEFNGVRWRRHIDIHKVDGRWHLQFVHIE”, 0.251.
“SEDEKNVEEMSRRLSHVLKTGDEESFSRLADPNARHIYNGRILHGWENFVRFLRHLWEHARIHELHVHDFEYQGDFMHVDSRLNGDINGQQMIFTTHLYNIKINGRWFLTEVKIV” displayed a protease stability score of 0.429.
For the sequence “SEDEKQFNEFLKLFNHSLQTGDEDTLTDLMDPTVRSDINGREFHGREEMSRALNILIKLAGVDHTSIDLKRLEVVGDKAHSDVSLLLIQGDKIRTHEMKLDMYKIDGKWILTHLRFK”, the protease stability score was found to be 1.66.
The figure for “SEDEKQLEHAVKLFIESLRTGDEHSLENLVDPNVRMQINGVELHGRELFIHLFREWRFHSVHLRHLDLQGDKVHLDGKLDVRFDGRRYEVILRTHIEKIDGRWHLRYMYEE” is 1.45; for “SEDEKRAKEFDERFNENLLTGNFEKLLHLADPNAKVFYNGQENHGMHLFLKWMVELLKQIRVEDVELDDYKIYGEKIVLDVTIHTRFDGQETEWKTRIITTKVDGRWVLKTVEIR” it is 1.45.
Take “SEDEKRLLDLAKEWIHNWLTGDEESMQKLADPSTRYEIGDKELHGMEEVNRSIKISLDELRVKHIDIERVKAINGVVTIHTRIDVEFNGKRMIIETIIRIDIFNGRIKQVWVEFR”: the protease stability score was 1.21.
The figure for “SEDEKSIKVAIELIINSVRTGDERFIKELADPHVRLEIGNKRVHGREEFAKLLSEENRQMRIHIIIDDVKSVGDFVFIRGTIEIHIDGVEERREFEIFVWKFNGRWVIKEERIH” is 1.43.
With “SEDEKTTKDVFREIKEILLTGDWRALERLLDPHVRFDINGQEIHGRESILEYWLEQVRRLGIDHIEIRLHHIDVQGDKIHLDVRIIYRYGDKEYREETKFVIIKIDGKWHLKEYHVD”, the protease stability score is 2.11.
In the case of “SEDEKTWHKLMEDHIKDWITGNEEKLEENADPHARFELHVGDKRITDHGRDFIEHWVDRIKNLRIELHDFEIQGNKVHLDVRVNVNGVHEIVTIIVIVIDGKLHSLHIHVEIR” it was -0.08.
The figure for “SEDEKVALEMLEWLSTARRTGDEHVMRELIDPHTRLHYGDKIYIGRDHVIELLLQLRVHIHHVELTHFESVGDKIKLHTEEDGHIDIDGRHHRVIIHTTMYARKFDGQWHTEEIRIH” is 1.93.
In the case of “SEDEKVVFQILRLWVDLLLTGDEEEMLHLADPNTRVEIGEFDDHGREAMEFMIRRFDVIEDIKIRDIRTIDGKVQIHGEVHSHFNGRRFTIHVEIIARKIDGRWKLTSMHFI” it was 2.08; in that of “SEDEKVVKWASDVLLDYIRTGDWRSLEELIDPHARHDVNGVEIIGMEHILKHFMELRRRIDHIHLRVHHIRVFDGQIDLNGKLHVNINGREIELDTRVIALKVNGRWVNHIISIG”, 1.44; in that of “SEDEKVYLKLVEDWIRIWRTGDEDMAEKLADPNVKIIIGDKSTHGREEWTRVVRELRTTEFDAHSITVVDGVVELDGRSRGDINGVEMNSHFTFILYIVDGRLKSQEIEVH”, 2.03.
As to “SEDEKWIRHAIRLLSEALETGDESMEHHLMDPNVKIRIDGVQYIGWEHWKKFVDRFDHEKIEHVHIRHIEVFNGRVDLDGFVHIILFVDGQEIRETRRTRIIVLKYNGKWLIESIEIE”, the protease stability score was found to be 2.3.
In the case of “SEDENILRRVVNILLHVWMTGDEDSLKELIDPHARMDFDGQEVHGREEITRLIRTILHELGIKHFELHRHHIDVQGDKAHIEVDGVDDVDGRKVKVIIRMHVLKVNGRWKTRIVYFERQ” it was 1.65.
The figure for “SEDENLIEEFLRRLMKWHNTGNFDEILNMVDPNTRIIVGDKFHHGRDALRYMWEFLGVDHVRIHVKRQEIIGDKVHNDTELEVNVNGKNLRIKEKLVVIKVNGVWILERIEIQ” is 1.48; for “SEDENLIKHVKELLTHRAHTGDERELERLVDPNVKIIVGDKFQIGRELMLETWHRWLEEAGVDQIRLTLHHERIQGDYIILEVTYDVNGREIELTIIHIKVNGKWRLHSMKVR” it is 0.529; for “SEDEQDAHKWLQLFIDFLKTGDEELMEKFLDPTVRSRVGDKETHGREMLVLHLLFLGVDHIHFRHVEERVYNGRVLLIITILIRVGDKHVETEIRVEIDKINGRWLAETIHIRIR” it is 0.778.
The figure for “SEDEQESRDIIKLLDKSIETGDEKTATRLADPHMRLDIDGVDLHGREEFVRWVIFVVREMRSRVEHTRVRMYDGRAEVDTTLLFIFEGRELRVESHIIMLKIDGRWIIHEVRIH” is 1.26.
For the sequence “SEDEQHLRRMLKVWDTAVKTGDEHLLDRLADPDVRIDINGVELHGREELERMLKQMRIEFEDSDLNHVHIQGDKIHADTEVVVIIIINGREERRRLRIESIVWKVNGRWHFKEFRFK”, the protease stability score is 1.4.
The figure for “SEDEQLAREAIERLLQDFSTGNFERLMEMVDPNVRWEVGDFVSHGRENWSEHFRTYLEKMGFKHVNVRLKHIEVIGNKVIVHSEIIINVDGQELRMQSSSHVVKINGRWVLRSESHL” is 2.06.
For the sequence “SEDEQLRYELAELFFHLISTGDEETIRHYFDPHVLVMIFVNGRNIENHGWEEMTRSLRELRIKDSRLKRVDVYGDYARMDIRVDGEINGVRRDTEVEIRIKWVNGRWKSVNIHIH”, the protease stability score worked out at 2.14.
The figure for “SEDEQQALEIIRQWVEFVRTGDEDSVRRLLDPNVRYEVNGREFHGRELVVRILWEIVYHLGVKHVDNKVEHMEIQGEFVKVETTMILRYNGRTLYIDTRIIIFKIDGRWVFRSIEEK” is 1.63; for “SEDEQSLREHIEWIIRALETGDWKKIEKLLDPHTRQDVNGREHIGREEVSRAIVQTFETLGVDHVQLTEIRNINGRLIVHVKMDVNGKILDLELIVTKIDGKWFMESVRLH” it is 1.89; for “SEDERDAHRAWEIWLKTLETGNEEDMLKLMDPNVRIIIGDKHHHGREELEKILRRYDHIDMEHVHLRHLEVQGEKVIYIGEIHMVFHFNGVTRRLHTEAILILTKVNGRWSQKSLEIK” it is 1.32.
The sequence “SEDERDAHRILDEEFEAIWTGDEHFLRELLDPNVQMDFNGVKLHGRHAFREIFRRFDWVDRIRLEEIRIFNGKVEIHIREDGFIDGRRTNTTSVFFMEKVDGRWKVRKMRIG” had a protease stability score of 1.66.
In the case of “SEDERDAKFATDLVLHLLRTGDEEKLLQLLDPNVRVEQGNKDWHGREDWHDFMEIMGIDHMTIHHVELRVVNGRVESHVDIRLLVNGRDDDVQLVLFMKKVDGRWRVTSLRFIYR” it was 1.74; in that of “SEDERDAKMFIDLLNEAMHTGDEQIIKDLVDPHVKIFVGDKIYIGWERYRHMLEEIRIHRWDSEIKRYRVFDGRLEVEGVLHFDVEVNGKRREISTHVELHFDKFDGRWIVREISVH”, 1.76; in that of “SEDERDAKRAEEEFKRHVETGDEKMLREMMDPHVRFEIGDKEFIGWNFAEKLHLDLIERIDHEELILRHINVVNGKVDSDVELRVHVDGVTIIVRTRIISKKIDGRWLIRSIIIH”, 0.695.
“SEDERDAQHFIELWDEAMRTGDFELLHYLMDPHTRILVNGRNLHGWEIYHKLLHEIRVKDSRSEDSRVIGDKVRVDQRVHGIVNGVETDLKTHLITEKFNGRWHYRSVEIK” came in with a protease stability score of -0.189.
In the case of “SEDERDARELMEIEIRAKRTGDEDTLERLMDPHMRTDINGKELVGREVLEWERKRVDHIHDFRIHHVTSVNGRLDIDASLRLTVDGVEETMRFRILTRKVNGRWIVEFLIVK” it was 0.985; in that of “SEDERDARHYLKEFEHAIETGDEHRLDELLDPNVKIDIDGVEHHGREWFRTLEHHIRVHSRVELKHIEVYGNFIVMDGHLHREIRINGRRIETHSRTIIIMRKVNGRWLVSELRFR”, 1.52.
“SEDERDARTMTEEITHIIETGDEHRFQELADPNMRLEQGEYHRHGREQVVEFLREVLRELRLKHIHIKDIHVIDGRVIIDVWVHSQYGDKEFTVKVIWIVHKIDGRWIFHSVRIE”: the protease stability score was 1.35.
As for “SEDERDIEHAVKVEIKSYETGDEKSWREYVDPHVRIEQGDFLFHGWEDAVKLYAKIKNLTLEVKDMKVYNGRVHSEGVFKFNGQSMETRLIIFKIDGQWIVHSIHIK”, the protease stability score was found to be 1.82.
In the case of “SEDERDIREAFKRWVHNVETGDFESLLKLFDPNVKTTIDGREYHGRDFLVRRLSEMRVHHIEIEHFDIQGDKVNVRGRMDGQIGDKRQDVHFVIHMVKINGRWLLTELTEK” it was 2.23; in that of “SEDERDISEVLEEISRIWKTGDEKRFRDLADPNVKMVVNGRELHGRDFAIEAWRKFRELYGIKHIRTVQVNSIDIQGDKVHVDTSMDGQQGEKRTVLRSEIIMLKVDGRWHLESMSFG”, 1.72; in that of “SEDERDMEKASEDMLRNWMTGDFKSLHTLLDPHYRIDIDGQWHHGRDLWVEALRELLHQLGVERVEARERDFKIQGNKLESHIELRYNGRTIETDDLFIKIDGRWFIHSIHLRIR”, 0.94.
The figure for “SEDERDMERFNRLVSHAMETGDEDTLNHLADPNVRVHIGDKDLHGREDYSRWLHELIRRVDYMEVHIHDERLQGDKAIVDSRIRLKFDGVETRIETILYLKKFDGRWRMTTFELK” is 0.705; for “SEDERDSEEWAKILIKLLETGDEDELRRLMDPHVRTEVIVNGRTITHHGREDLTEFLRKLGADVIDIERVRVIDGVVHLDSRSKQGEKHVTLHFEALKINGRWITERFHVKFH” it is 1.3; for “SEDERDSKIAAEINRHWLETGDEEHFKKNVDPHTKVRIGDKEYHGRHFLLHILEHHVKHLWFEVRIEDLRLIGDFVHIDMVLFIRVDGRQETFRIRIIAQKIDGRWVVKHINIE” it is 0.097.
